Test results taken from patent publication US10745461B2, “Pulsed introduction of low-dose RANKL as a therapy for diet-induced atherosclerosis” (Saint Louis University, priority 2015, dated 2020).
“Also recorded” adds a separate entry of the source.

Tests used:
ovariectomized mice = test: Low dose RANKL in ovariectomized mice (TcREG, serum CTX, μCT, bone formation); assay type: in vivo
Procedure: Representative FACS contour plots are shown on the first and second panel and the distribution (N=8 mice per group) is shown in the third panel. […] In these experiments (panels C-F), we used ex vivo generated TcREG as a positive control/comparator. […] Arrows are shown to emphasize the distance between dyes.
it was then determined that RANKL induces functional TcREG in ovariectomized mice. Having shown that RANKL could restore the ability of osteoclasts to induce FoxP3 expression in the presence of TNFα in vitro, we tested the ability of RANKL to induce TcREG in ovariectomized mice, as proof of principle for de-repression by increased levels of RANKL in pro-inflammatory environment. Again, a dose of RANKL that induced the highest levels of TcREG in vivo (FIG. 1A) was used. Administration of love dose RANKL to ovariectomized mice increased TcREG numbers by an average of 1.8-fold (FIG. 6A). To determine whether this increase in TcREG numbers affected bone resorption in ovariectomized mice, levels of bone resorption and bone formation rates in these (low-dose) RANKL-treated mice were measured. As it has been previously established that ex vivo generated OC-iTcREG limit bone resorption, increased bone mass, decreased activated effector T-cells, and increases bone formation and mineral apposition rates, this treatment was used as a benchmark in these experiments.
Bilateral ovariectomy was performed on 12-14 week old mice. Mice were anesthetized using 2.5% isoflurane to initiate anesthesia, and 1% for maintenance. The ovaries were accessed through a single incision in the skin, and exteriorized through muscle wall on each side. Each ovary was clamped using hemostat and removed by a single cut. Skin staples (3M) were used to close the skin incision. To minimize discomfort post-surgery, 0.025 mg/kg Buprenorphine was administered subcutaneously. Zoledronate (Selleck Chemicals) was administered at 30 μg/kg via tail vein.
Food was withdrawn 6 to 10 hours prior to bleeding. Peripheral blood (100 to 200 μL) obtained via sub-mandibular vein, was allowed to clot for 2 hours at room temperature and serum collected by spinning down the cell pellet. Serum C-terminal telopeptide of type 1 collagen (serum CTX) was measured using ELISA according to the manufacturer's instructions (Immunodiagnostic Systems, Plc)
The bones were scanned in μCT40 (Scanco Medical) at 55 kVp, 145 μA, and resolution of 16 μm. Gauss sigma of 1.2, Gauss support of 2, lower threshold of 237, and upper threshold of 1000 were used for all the analysis. Regions of interest were selected 50 slices below the growth plate of the proximal tibia to evaluate the trabecular compartment. Bone mineral density was obtained by quantitative μCT using Scanco Phantoms for calibration^49. All μCT data and bone histomorphometry data was collected and analyzed by C.Y, who was blinded to the treatment performed on the mouse samples.

[1] = test system: atherosclerotic lesions in the aortic root; test: WD-fed ovariectomized LDLR-/- and WT mice dosed with saline or IdRANKL: weight, cholesterol, atheroma, BV/TV; assay type: in vivo; details: for atheroprotection / effects of OVX on atherogenesis / bone loss (BV/TV): LDLR-/- and WT mice; for reduction of plaque size compared to non-treated animals: WD, OVX; for body weight gain: ovariectomized WD-fed LDLR-/- and WT mice
Procedure: Ovariectomized (OVX) mice were treated with saline control or pulsed low-dose RANKL at 3 and 7 weeks post-OVX. RANKL was administered at 0.125 mg/kg twice at 0 and 24 hours for each treatment time point.
In order to define the contributions of menopause, LDL-cholesterol, and diet to postmenopausal morbidities, 10-week-old wild-type (WT) and (LDLR−/−) mice were placed on normal (ND) or western (WD) diet and we performed sham-surgery or ovariectomy two weeks after die diet switch. This regimen is intended to mimic the conditions of patients, who presumably already have fatty streaks in their vasculature by the time menopause ensues. All animals were sacrificed at 19 weeks of age, when hearts, long bones, and blood were collected.
It has been previously shown that low-dose RANKL (IdRANKL) induces TcREG in bone marrow. We postulated that induction of TcREG might be atheroprotective as it protects against osteoporosis in ovariectomized mice. To test that proposal, we first tested the ability of IdRANKL to modulate the systemic availability of proinflammatory cytokines. Thus, a new group of WT mice were fed WD, and subjected to sham or OVX surgeries, then dosed with saline or IdRANKL (two i.p. injections 3 and 7 weeks after OVX). […] We then, measured the ability of freshly isolated T-cells from peripheral blood to produce IL-17A and TNFα. […] Zoledronate is a bisphosphonate that is used clinically to prevent bone resorption (by suppressing osteoclasts). […] Without being limited to any particular theory of operation, we hypothesize that these cells contribute to postmenopausal comorbidities such as atherosclerosis and osteoporosis, and that immunosuppressing therapies such as pulsed IdRANKL will have cardio- and osteo-protective effects.
To test this hypothesis, a new group of LDLR−/− and WT mice were fed WD and ovariectomized as discussed previously, and dosed with saline or IdRANKL as above. […] The underlying mechanism for this limiting weight-gain following induction of TcREG is not known, but warrants further study. […] This beneficial effect was more pronounced in WI mice, where plaques were reduced by 80% in size, compared to non-treated animals. In LDLR−/− mice, the reduction was more modest at 35%. […] We conclude that IdRANKL likely exerts protective effects in the aorta and the bone via TcReG-mediated suppression of TEFF proinflammatory activity (e.g. production of IL-17A and TNFα).

B1: receptor activator of NF-κB ligand (protein, UniProt O35235 139-316, looked up)
Tumor necrosis factor ligand …: FSGAPAMMEGSWLDVAQRGKPEAQPFAHLTINAASIPSGSHKVTLSSWYHDRGWAKISNMTLSNGKLRVNQDGFYYLYANICFRHHETSGSVPTDYLQLMVYVVKTSIKIPSSHNLMKGGSTKNWSGNSEFHFYSINVGGFFKLRAGEEISIQVSNPSLLDPDQDATYFGAFKVQDID
modifications: GST tag
osteoclasts occupying bone (ovariectomized mice): fewer osteoclasts occupying bone | overall effectiveness of treatment (ovariectomized mice): more effective treatment than OC-iTcREG and the bisphosphonate Zoledronic acid by all measurable criteria | bone mass and bone mineral density (μCT) (ovariectomized mice; comparator OC-iTcREG): more bone mass and bone mineral density relative to the OC-iTcREG treated mice | serum CTX (ovariectomized mice; comparator OC-iTcREG, listed as low dose RANKL): lower levels of serum CTX compared to mice treated with OC-iTcREG | serum CTX (ovariectomized mice; comparator OC-iTcREG, listed as low-dose RANKL): serum CTX levels decreased | bone formation and mineral apposition rates (ovariectomized mice; comparators OC-iTcREG, Zoledronate, listed as low dose RANKL): to a greater extent than Zoledronate and ex vivo generated TcREG; also recorded: increase bone formation and mineral apposition rates than OC-iTcREG treated mice | TcREG induction in bone marrow (ovariectomized mice; intraperitoneal 0.125 mg/kg): induced TcREG in the bone marrow of ovariectomized mice | increase in TcREG numbers (average) (ovariectomized mice; low dose RANKL): 1.8 fold | atheroprotection / effects of OVX on atherogenesis [1]: eliminated the effects of OVX on both osteoporosis and atherogenesis | total cholesterol in serum ([1]; LDLR-/- and WT mice (FIG. 20G)): does not significantly alter total cholesterol in serum | atheroprotection / effects of OVX on atherogenesis ([1]; listed as IdRANKL): atheroprotective | bone loss (BV/TV) ([1]; listed as IdRANKL): pronounced effect on preventing osteoporosis | bone loss (BV/TV) ([1]; listed as low-dose RANKL): prevents bone loss | serum cholesterol ([1]; LDLR-/- mice): slightly decreased | reduction of plaque size compared to non-treated animals ([1]; LDLR-/- mice): 35% | reduction of plaque size compared to non-treated animals ([1]; WT mice): 80% | body weight gain ([1]; listed as IdRANKL): ameliorated body weight gain | body weight gain ([1]; listed as low-dose RANKL): reduces body gain weight
